Patent US20240228572A1 (I2O THERAPEUTICS, published 2024)
*1 amine or outer side, *2 acyl side, *3 side chain or, on linkers, in order; H or OH if unused. Bridges are numbered along the chain shown (N, C = ends). Primed or numbered codes have the meaning given here. Where no end group is shown, it is not given here. Side-chain parts run from the residue outwards. [ ]: non-standard residue; d: D form. The star is where a group is joined. dpeg″ = spacer —[CO(CH2)O(CH2)2O(CH2)NH]—, O=C(COCCOCN[*:1])[*:2]; dpeg = —[CO(CH2)O(CH2)2O(CH2)NH]— spacer, O=C(COCCOCN[*:1])[*:2]; C20 diacid = O=C(O)CCCCCCCCCCCCCCCCCCC(=O)*; γGlu = O=C(O)[C@H](CCC(=O)[*:2])N[*:1]; NMeE = CN[C@@H](CCC(=O)O)C(=O)O; Aib = CC(C)(N)C(=O)O

B1: Compound A38 (peptide)
peptide: YSHGTFTSDYSKYLD[Aib]KYAEK([γGlu-γGlu-dpeg″-C20 diacid])FVKWLEEEPSSGAPPPS-OH
modifications: lactam 24-28; N-terminus assumed
SMILES: CC(C)C[C@@H]1NC(=O)[C@H](Cc2c[nH]c3ccccc23)NC(=O)[C@@H](NC(=O)[C@@H](NC(=O)[C@H](Cc2ccccc2)NC(=O)[C@H](CCCCNC(=O)CC[C@H](NC(=O)CC[C@H](NC(=O)COCCOCNC(=O)CCCCCCCCCCCCCCCCCCC(=O)O)C(=O)O)C(=O)O)NC(=O)[C@H](CCC(=O)O)NC(=O)[C@H](C)NC(=O)[C@H](Cc2ccc(O)cc2)NC(=O)[C@H](CCCCN)NC(=O)C(C)(C)NC(=O)[C@H](CC(=O)O)NC(=O)[C@H](CC(C)C)NC(=O)[C@H](Cc2ccc(O)cc2)NC(=O)[C@H](CCCCN)NC(=O)[C@H](CO)NC(=O)[C@H](Cc2ccc(O)cc2)NC(=O)[C@H](CC(=O)O)NC(=O)[C@H](CO)NC(=O)[C@@H](NC(=O)[C@H](Cc2ccccc2)NC(=O)[C@@H](NC(=O)CNC(=O)[C@H](Cc2c[nH]cn2)NC(=O)[C@H](CO)NC(=O)[C@@H](N)Cc2ccc(O)cc2)[C@@H](C)O)[C@@H](C)O)C(C)C)CCCCNC(=O)CC[C@@H](C(=O)N[C@@H](CCC(=O)O)C(=O)N2CCC[C@H]2C(=O)N[C@@H](CO)C(=O)N[C@@H](CO)C(=O)NCC(=O)N[C@@H](C)C(=O)N2CCC[C@H]2C(=O)N2CCC[C@H]2C(=O)N2CCC[C@H]2C(=O)N[C@@H](CO)C(=O)O)NC(=O)[C@H](CCC(=O)O)NC1=O
B2: Compound A36 (peptide)
peptide: Ac-YSHGTFTSDYSKYLD[Aib]KYAQK([γGlu-γGlu-dpeg″-C20 diacid])FVKWLEEEPSSGAPPPS-OH
modifications: lactam 24-28
SMILES: CC(=O)N[C@@H](Cc1ccc(O)cc1)C(=O)N[C@@H](CO)C(=O)N[C@@H](Cc1c[nH]cn1)C(=O)NCC(=O)N[C@H](C(=O)N[C@@H](Cc1ccccc1)C(=O)N[C@H](C(=O)N[C@@H](CO)C(=O)N[C@@H](CC(=O)O)C(=O)N[C@@H](Cc1ccc(O)cc1)C(=O)N[C@@H](CO)C(=O)N[C@@H](CCCCN)C(=O)N[C@@H](Cc1ccc(O)cc1)C(=O)N[C@@H](CC(C)C)C(=O)N[C@@H](CC(=O)O)C(=O)NC(C)(C)C(=O)N[C@@H](CCCCN)C(=O)N[C@@H](Cc1ccc(O)cc1)C(=O)N[C@@H](C)C(=O)N[C@@H](CCC(N)=O)C(=O)N[C@@H](CCCCNC(=O)CC[C@H](NC(=O)CC[C@H](NC(=O)COCCOCNC(=O)CCCCCCCCCCCCCCCCCCC(=O)O)C(=O)O)C(=O)O)C(=O)N[C@@H](Cc1ccccc1)C(=O)N[C@H](C(=O)N[C@H]1CCCCNC(=O)CC[C@@H](C(=O)N[C@@H](CCC(=O)O)C(=O)N2CCC[C@H]2C(=O)N[C@@H](CO)C(=O)N[C@@H](CO)C(=O)NCC(=O)N[C@@H](C)C(=O)N2CCC[C@H]2C(=O)N2CCC[C@H]2C(=O)N2CCC[C@H]2C(=O)N[C@@H](CO)C(=O)O)NC(=O)[C@H](CCC(=O)O)NC(=O)[C@H](CC(C)C)NC(=O)[C@H](Cc2c[nH]c3ccccc23)NC1=O)C(C)C)[C@@H](C)O)[C@@H](C)O

Columns and labels:
[1] = target: human GLP-1 receptor (GLP-1R) (human, UniProt P43220 24-463); test: cell-based or functional assay
[2] = target: human Glucagon receptor (GCGR) (human, UniProt P47871 26-477); test: cell-based or functional assay

human GLP-1 receptor (GLP-1R), sequence (P43220 24-463): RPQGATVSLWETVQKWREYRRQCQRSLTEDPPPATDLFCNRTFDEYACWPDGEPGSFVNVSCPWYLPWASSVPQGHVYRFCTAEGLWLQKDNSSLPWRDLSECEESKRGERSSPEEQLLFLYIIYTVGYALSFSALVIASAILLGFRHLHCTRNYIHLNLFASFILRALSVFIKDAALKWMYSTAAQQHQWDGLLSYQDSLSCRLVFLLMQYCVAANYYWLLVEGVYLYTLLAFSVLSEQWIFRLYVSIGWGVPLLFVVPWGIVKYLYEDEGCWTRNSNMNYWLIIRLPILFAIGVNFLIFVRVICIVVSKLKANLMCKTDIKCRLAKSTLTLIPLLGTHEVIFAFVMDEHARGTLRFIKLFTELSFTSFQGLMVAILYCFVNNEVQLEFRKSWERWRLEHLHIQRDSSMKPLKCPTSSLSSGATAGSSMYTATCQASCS

Binder	pEC50, cAMP accumulation [1]	pEC50, cAMP accumulation [2]
YSHGTFTSDYSKYLDK([γGlu-γGlu-dpeg-C20 diacid])KYASEFV[Aib]WLESEPSSGAPPPS-OH [Compound A24]	< 9 pEC50 (-log M)	12.5 pEC50 (-log M)
B1	< 9 pEC50 (-log M)	11.4 pEC50 (-log M)
YSHGTFTSDYSKYLDK([γGlu-γGlu-dpeg″-C20 diacid])KYAEKFVKWLENEPSSGAPPPS-OH (lactam 20-24) [Compound A27]	< 9 pEC50 (-log M)	12 pEC50 (-log M)
YSHGTFTSDYSKYLDK([γGlu-γGlu-dpeg″-C20 diacid])KYAEKFVKWLEEEPSSGAPPPS-OH (lactam 20-24) [Compound A25]	< 9 pEC50 (-log M)	11.9 pEC50 (-log M)
B2	< 9 pEC50 (-log M)	10.8 pEC50 (-log M)
YSHGTFTSDYSKYLDK([γGlu-γGlu-dpeg″-C20 diacid])KYAEKFVKWLESEPSSGAPPPS-OH (lactam 20-24) [Compound A28]	< 9 pEC50 (-log M)	11.7 pEC50 (-log M)
YSHGTFTSDYSKYLD[Aib]KYAQK([γGlu-γGlu-dpeg″-C20 diacid])FVKWLEDEPSSGAPPPS-OH (lactam 24-28) [Compound A30]	< 9 pEC50 (-log M)	12.5 pEC50 (-log M)
YSHGTFTSDYSKYLDK([γGlu-γGlu-dpeg″-C20 diacid])KYAEKFVKWLEDEPSSGKPPPS-OH (lactam 20-24) [Compound A32]	< 9 pEC50 (-log M)	11.7 pEC50 (-log M)
YSHGTFTSDYSKYLDK([γGlu-γGlu-dpeg″-C20 diacid])KYAEKFVKWLEDEPSSGAPPPS-NH2 (lactam 20-24) [Compound A34]	< 9 pEC50 (-log M)	11.9 pEC50 (-log M)
YSHGTFTSDYSKYLDK([γGlu-γGlu-dpeg″-C20 diacid])KYAEKFVKWLEDEPSSGAPPPS-OH (lactam 20-24) [Compound A21]	< 9 pEC50 (-log M)	12.1 pEC50 (-log M)
Ac-YSHGTFTSDYSKYLDK([γGlu-γGlu-dpeg″-C20 diacid])KYAEKFVKWLEDEPSSGAPPPS-OH (lactam 20-24) [Compound A37]	< 9 pEC50 (-log M)	11.5 pEC50 (-log M)
YSHGTFTSDYSKYLDK([γGlu-γGlu-dpeg″-C20 diacid])KYAEKFVKWLEKEPSSGAPPPS-OH (lactam 20-24) [Compound A26]	< 9 pEC50 (-log M)	11.1 pEC50 (-log M)
YSHGTFTSDYSKYLDK([γGlu-γGlu-dpeg-C20 diacid])KYAEEFV[Aib]WLESEPSSGAPPPS-OH [Compound A23]	< 9 pEC50 (-log M)	11.5 pEC50 (-log M)
YSHGTFTSDYSKYLDK([γGlu-γGlu-dpeg″-C20 diacid])KYAEKFVKWLEDEPSSGEPPPS-OH (lactam 20-24) [Compound A31]	< 9 pEC50 (-log M)	11.9 pEC50 (-log M)
YSHGTFTSDYSKYLDK([γGlu-γGlu-dpeg-C20 diacid])KYAQEFV[Aib]WLEQEPSSGAPPPS-OH [Compound A17]	< 9 pEC50 (-log M)	12.1 pEC50 (-log M)
YSHGTFTSDYSKYLDK([γGlu-γGlu-dpeg-C20 diacid])KYAQEFV[Aib]WLENEPSSGAPPPS-OH [Compound A16]	< 9 pEC50 (-log M)	12.2 pEC50 (-log M)
YSHGTFTSDYSKYLDK([γGlu-γGlu-dpeg″-C20 diacid])KYAEKFVKWLEDE-NH2 (lactam 20-24) [Compound A35]	< 9 pEC50 (-log M)	11.9 pEC50 (-log M)
YSHGTFTSDYSKYLDK([γGlu-γGlu-dpeg-C20 diacid])KYAQEFV[Aib]WLESEPSSGAPPPS-OH [Compound A19]	< 9 pEC50 (-log M)	12.1 pEC50 (-log M)
YSHGTFTSDYSKYLDK([γGlu-γGlu-dpeg-C20 diacid])KYAQEFV[Aib]WLEEEPSSGAPPPS-OH [Compound A15]	< 9 pEC50 (-log M)	12.1 pEC50 (-log M)
YSHGTFTSDYSKYLDK([γGlu-γGlu-dpeg″-C20 diacid])KYAEKFVKWLEDEPSSGSPPPS-OH (lactam 20-24) [Compound A33]	< 9 pEC50 (-log M)	11.9 pEC50 (-log M)
YSHGTFTSDYSKYLDK([γGlu-γGlu-dpeg-C20 diacid])KYAQEFV[Aib]WLEKEPSSGAPPPS-OH [Compound A20]	< 9 pEC50 (-log M)	12.1 pEC50 (-log M)
YSHGTFTSDYSKYLDK([γGlu-γGlu-dpeg-C20 diacid])KYAQEFV[Aib]WLE[NMeE]EPSSGAPPPS-OH [Compound A18]	< 9 pEC50 (-log M)	10.4 pEC50 (-log M)
YSHGTFTSDYSKYLDK([γGlu-γGlu-dpeg-C20 diacid])KYAKEFV[Aib]WLESEPSSGAPPPS-OH [Compound A22]	< 9 pEC50 (-log M)	11.7 pEC50 (-log M)
